For two substances, Analysis 1 Eluate Recovery % (w/w) (ConA binding material) and Analysis 2 Eluate Recovery % (w/w) (ConA binding material) results are on record in US20140031294A1.

This experiment deals with Concanavalin A (UniProt P02866). Description: ConA sepharose affinity chromatography, load and eluate by RP-HPLC.

For the substance “recombinant transferrin (S32C, S415A, T613A) (from UniProt P02787 20-698) (ligand)”, the Analysis 1 Eluate Recovery % (w/w) (ConA binding material) was 0.25 % (w/w) and the Analysis 2 Eluate Recovery % (w/w) (ConA binding material) is 0.26 % (w/w).

Take “recombinant transferrin (S32A, S415A, T613A) (from UniProt P02787 20-698) (ligand)”: the Analysis 1 Eluate Recovery % (w/w) (ConA binding material) is 0.15 % (w/w).
